The values that follow come from patent EP4036575A1 (Yeda Research and Development Co. Ltd, dated 2022).

For the assay, the target named is T1, mouse recombinant His-calmodulin (mouse, UniProt P0DP26 1-149).
T1 construct: also called His-CaM; His-tagged calmodulin
Kind of assay: SPR (Biacore), His-CaM immobilised on CM5, analyte preincubated with 0.3 mM CaCl2.

A word on the Kd: it is the equilibrium constant for the complex coming apart. For the molecule KRRWKKNFIAVSAANRFKKISSSGAL, the Kd was 8.8 nM.
